In IntAct's records for PubMed 22949673:

B1: 5-cytosine rRNA methyltransferase NSUN4 (Homo sapiens), Q96CB9-1 (parent)
chain: MAALTLRGVRELLKRVDLATVPRRHRYKKKWAATEPKFPAVRLALQNFDMTYSVQFGDLWPSIRVSLLSEQKYGALVNNFAAWDHVSAKLEQLSAKDFVNEAISHWELQSEGGQSAAPSPASWACSPNLRCFTFDRGDISRFPPARPGSLGVMEYYLMDAASLLPVLALGLQPGDIVLDLCAAPGGKTLALLQTGCCRNLAANDLSPSRIARLQKILHSYVPEEIRDGNQVRVTSWDGRKWGELEGDTYDRVLVDVPCTTDRHSLHEEENNIFKRSRKKERQILPVLQVQLLAAGLLATKPGGHVVYSTCSLSHLQNEYVVQGAIELLANQYSIQVQVEDLTHFRRVFMDTFCFFSSCQVGELVIPNLMANFGPMYFCKMRRLT
partner: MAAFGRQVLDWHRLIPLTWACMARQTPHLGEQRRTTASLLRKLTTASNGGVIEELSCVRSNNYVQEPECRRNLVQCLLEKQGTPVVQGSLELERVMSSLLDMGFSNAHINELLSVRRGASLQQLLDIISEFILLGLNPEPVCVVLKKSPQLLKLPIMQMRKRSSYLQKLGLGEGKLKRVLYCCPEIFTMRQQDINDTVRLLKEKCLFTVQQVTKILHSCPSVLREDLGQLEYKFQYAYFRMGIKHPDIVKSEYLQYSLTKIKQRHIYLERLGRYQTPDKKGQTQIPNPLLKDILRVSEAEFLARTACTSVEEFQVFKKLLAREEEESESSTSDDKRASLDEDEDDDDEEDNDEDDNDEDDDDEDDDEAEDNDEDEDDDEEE

Variants of: B1
Conditions: with mtef4_human MTERF4, Q7Z6M4

Row | effect of a mutation on the interaction | Variant
1 | disrupting interaction strength | V65R;R136A;I139R;R141A
